Data on one substance can be found in patent publication US20080261863A1, “Pegylation of Vasoactive Intestinal Peptide (Vip) / Pituitary Adenylate Cyclase Activating Peptide (Pacap) Receptor 2 (Vpac2) Agonists and Methods of Use” (priority 2004, published 2008).

The assay has as its target VPAC2 receptor (human) (UniProt P41587). In words: cell-based or functional assay.

VPAC2 receptor (human), sequence (P41587 24-438): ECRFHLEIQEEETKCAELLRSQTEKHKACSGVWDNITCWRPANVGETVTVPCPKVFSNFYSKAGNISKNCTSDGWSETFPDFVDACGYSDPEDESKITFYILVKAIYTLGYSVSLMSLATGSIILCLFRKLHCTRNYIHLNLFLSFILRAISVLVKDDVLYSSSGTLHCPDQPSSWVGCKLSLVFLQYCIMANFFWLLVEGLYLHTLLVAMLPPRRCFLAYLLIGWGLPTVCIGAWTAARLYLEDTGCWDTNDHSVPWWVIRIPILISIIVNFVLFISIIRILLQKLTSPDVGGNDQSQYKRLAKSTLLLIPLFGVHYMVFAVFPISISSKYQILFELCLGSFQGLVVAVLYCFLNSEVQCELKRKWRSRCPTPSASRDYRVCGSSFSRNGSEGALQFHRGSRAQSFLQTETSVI

Substance “PACAP-27 (from UniProt P18509 132-158) (peptide)” gave an EC50 (nM), cAMP SPA, VPAC2 agonist activity of 0.09 nM.
